Results on six molecules are retold here after publication PMC11198818, “Positive charges promote the recognition of proteins by the chaperone SlyD from Escherichia coli” (PLOS ONE, 2024).

Experiment [1] addresses C-terminally hexahistidine-tagged SlyD from Escherichia coli (E. coli) (UniProt P0A9K9). As to the kind of experiment: ITC; VP-ITC, 30°C, 10 mM potassium phosphate pH 7.6 or 7.8; His-tagged SlyD or variant 30 μM in the cell; HiPIP precursor injected, 200 μM (Fig 3) or 100 μM (Fig 4). A general note: In ITC the heat of successive injections is recorded.
In experiment [2] the target is T1, SlyD from Escherichia coli, C-terminally tagged with a Strep-tag II (E. coli, UniProt P0A9K9 1-196, 35S-methionine label (peptide arrays)).
T1 construct: SlyD, chaperone and FKBP-family prolyl isomerase, Escherichia coli; also called Strep-tagged SlyD; 35S-labeled SlyD; source: E. coli BW25113 ΔdnaK (pBW-slyD-strep), soluble, purified (StrepTactin) for the peptide arrays; not shown: Strep-tag II, C-terminal, kept
T1 sequence: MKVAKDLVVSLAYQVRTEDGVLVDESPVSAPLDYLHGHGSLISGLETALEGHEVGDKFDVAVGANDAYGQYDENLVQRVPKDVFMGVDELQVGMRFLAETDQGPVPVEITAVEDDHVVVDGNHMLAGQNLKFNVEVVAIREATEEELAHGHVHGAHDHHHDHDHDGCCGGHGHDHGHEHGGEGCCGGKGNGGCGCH
As to the kind of experiment: peptide or protein array; 13-mer peptides synthesised in spots on cellulose membrane; 35S-methionine-labelled Strep-tagged SlyD incubated 2 h at room temperature, washed in TBS (31 mM Tris-HCl pH 7.6, 170 mM NaCl, 6.4 mM KCl), phosphorimaging. The settings on record: both partners purified.

Experiment [3] deals with T2, C-terminally hexahistidine-tagged SlyD from Escherichia coli (E. coli, UniProt P0A9K9 1-196).
T2 chain: T1 sequence
Put plainly: ITC.

In experiment [4] the target is SlyD F84N, C-terminally His-tagged (E. coli, UniProt P0A9K9 1-196, F84N). Put plainly: ITC.
Experiment [5] has as its target SlyD F96A, C-terminally His-tagged (E. coli, UniProt P0A9K9 1-196, F96A). As to the kind of experiment: ITC.
The target of experiment [6] is SlyD F84N/F96N, C-terminally His-tagged (E. coli, UniProt P0A9K9 1-196, F84N | F96N). As to the kind of experiment: ITC.
The target in experiment [7] is SlyD E113A, C-terminally His-tagged (E. coli, UniProt P0A9K9 1-196, E113A). Put plainly: ITC.
Experiment [8] has as its target SlyD F96G, C-terminally His-tagged (E. coli, UniProt P0A9K9 1-196, F96G). As to the kind of experiment: ITC.
Experiment [9] concerns the target SlyD F96N, C-terminally His-tagged (E. coli, UniProt P0A9K9 1-196, F96N). Put plainly: ITC.
The target of experiment [10] is SlyD E89A, C-terminally His-tagged (E. coli, UniProt P0A9K9 1-196, E89A). Put plainly: ITC.
Experiment [11] addresses T3, C-terminally hexahistidine-tagged SlyD from Escherichia coli (E. coli, UniProt P0A9K9 1-196).
T3 construct: SlyD, chaperone and FKBP-family prolyl isomerase, Escherichia coli; also called His-tagged SlyD; wild type; not shown: His6, C-terminal, kept
T3 sequence: T1 sequence
Put plainly: ITC; VP-ITC, 30°C, 10 mM potassium phosphate pH 7.6 or 7.8; His-tagged SlyD or variant 30 μM in the cell; HiPIP precursor injected, 200 μM (Fig 3) or 100 μM (Fig 4). The settings on record: both partners purified.

Experiment [12] concerns the target T4, SlyD E108A, C-terminally His-tagged (E. coli, UniProt P0A9K9 1-196, E108A).
T4 construct: SlyD, Escherichia coli; not shown: His6, C-terminal, kept
T4 sequence: T1 sequence with E108A
The experiment is described as above. The settings on record: both partners purified.

The target in experiment [13] is T5, SlyD D101A, C-terminally His-tagged (E. coli, UniProt P0A9K9 1-196, D101A).
T5 construct: SlyD, Escherichia coli; not shown: His6, C-terminal, kept
T5 sequence: T1 sequence with D101A
Described as above. The settings on record: both partners purified.

Experiment [14] has as its target single-exchange SlyD variants of the hydrophobic active site (F84A, F84N, F96A, F96G, F96N). Described as above.
For experiment [15], the target named is T6, SlyD E73A, C-terminally hexahistidine-tagged (Escherichia coli, UniProt P0A9K9 1-196, E73A).
T6 construct: SlyD of Escherichia coli (FKBP-type prolyl isomerase and chaperone); not shown: His6, C-terminal, kept
T6 sequence: T1 sequence with E73A
As to the kind of experiment: ITC; VP-ITC, 30°C, 10 mM potassium phosphate buffer (pH 7.6 or 7.8); SlyD variant 30 μM in the cell, HiPIP precursor 100 μM injected (2x 22 injections of 10 μL). The settings on record: both partners purified.

Experiment [16] has as its target T7, SlyD D115A, C-terminally hexahistidine-tagged (Escherichia coli, UniProt P0A9K9 1-196, D115A).
T7 construct: SlyD of Escherichia coli (FKBP-type prolyl isomerase and chaperone); not shown: His6, C-terminal, kept
T7 sequence: T1 sequence with D115A
The experiment is described as above. The settings on record: both partners purified.

Experiment [17] concerns the target T8, SlyD E113A, C-terminally hexahistidine-tagged (Escherichia coli, UniProt P0A9K9 1-196, E113A).
T8 construct: SlyD of Escherichia coli (FKBP-type prolyl isomerase and chaperone); not shown: His6, C-terminal, kept
T8 sequence: T1 sequence with E113A
Described as above. The following applies: both partners purified.

Experiment [18] deals with T9, SlyD Y68S, C-terminally hexahistidine-tagged (Escherichia coli, UniProt P0A9K9 1-196, Y68S).
T9 construct: SlyD of Escherichia coli (FKBP-type prolyl isomerase and chaperone); not shown: His6, C-terminal, kept
T9 sequence: T1 sequence with Y68S
Described as above. The settings on record: both partners purified.

Experiment [19] has as its target T10, SlyD E89A, C-terminally hexahistidine-tagged (Escherichia coli, UniProt P0A9K9 1-196, E89A).
T10 construct: SlyD of Escherichia coli (FKBP-type prolyl isomerase and chaperone); not shown: His6, C-terminal, kept
T10 sequence: T1 sequence with E89A
The description is as above. The following applies: both partners purified.

The Kd is the concentration at which binding is half-saturated. The low end stands for tighter binding, the high end for weaker binding.

Where a chain is given by its changes, count along the chain named. cellulose membrane = Whatman 540 cellulose membrane solid support derivatized with two β-Ala residues; βAla = NCCC(=O)O

In experiment [1], “HiPIP precursor with an RR>KK exchange (from UniProt P00260 38-122) (natural protein)” showed a dissociation constant Kd of 1180 nM and a dH of -7.7 kcal/mol.

B1: twin-arginine peptide in an oligoglycine environment (GGGGGXXGGGGGG, X = R) (peptide)
peptide: Ac-GGGGGRRGGGGGG-{βAla-βAla-cellulose membrane}
notes: the printed pattern GGGGGXXGGGGGG with X = R; The acetyl group and the spacer are told in the methods for the spot synthesis in general; also called arginines in a glycine environment; source: synthetic peptide, spot synthesis on cellulose membrane
Turning to B1, in experiment [2], the binding result is reported as “binds”.

B2: wild type HiPIP precursor from Allochromatium vinosum (natural protein, UniProt P00260 1-122, looked up)
chain: MSDKPISKSRRDAVKVMLGTAAAIPMINLVGFGTARASAPANAVAADDATAIALKYNQDATKSERVAAARPGLPPEEQHCANCQFMQADAAGATDEWKGCQLFPGKLINVNGWCASWTLKAG
notes: HiPIP (high-potential iron-sulfur protein), Allochromatium vinosum; the precursor with its Tat signal peptide; Called a fully folded Tat substrate; also called RR-HiPIP; signal-peptide-containing HiPIP precursor
Consider B2, for which the Kd in experiment [3] was 400 nM; in experiment [4], 6600 nM; in experiment [5] it was 4900 nM; in [6], above 360000 nM; in [7], 500 nM; in [8] it was 5700 nM. Besides, the dissociation constant (Kd) in experiment [9] is 8900 nM; in [10], 400 nM; in [11], around 350 nM; in experiment [12], 1820 nM; in [13], 950 nM; in [14], 4000 to 10000 nM. In experiment [11], this molecule showed a dH of around -9.06 kcal/mol.

B3: HiPIP precursor (RR-HiPIP) from Allochromatium vinosum (natural protein)
chain: B2 chain
modifications: HiPIP precursor; fully folded, [4Fe-4S] cluster presumed; signal peptide retained
B3: the Kd in experiment [15] is 321 nM; in experiment [16] it was 272 nM; in experiment [17], 493 nM; in experiment [18] it was 299 nM; in experiment [19], 380 nM.

B4: HiPIP precursor with an RR>QQ exchange (natural protein)
chain: B2 chain with R10Q, R11Q
modifications: HiPIP precursor; [4Fe-4S] cluster presumed; RR>QQ positions derived from primer hip-QQ-F, which encodes DKPISKSQQDAVKVML
In experiment [11], B4 displayed a Kd of 38700 ± 2000 nM.

B5: twin-lysine peptide in an oligoglycine environment (GGGGGXXGGGGGG, X = K) (peptide)
peptide: Ac-GGGGGKKGGGGGG-{βAla-βAla-cellulose membrane}
notes: the printed pattern GGGGGXXGGGGGG with X = K; The acetyl group and the spacer are told in the methods for the spot synthesis in general; also called lysines in a glycine environment; source: synthetic peptide, spot synthesis on cellulose membrane
Regarding B5, the binding result in experiment [2] is listed as “binds”.
